Measurements reported in patent publication US20210206813.

Columns and labels:
[1] = biological target: p130cas substrate domain fused to the omega subunit of RNA polymerase
[2] = biological target: MidT substrate domain fused to the omega subunit of RNA polymerase

| Protein | luminescence (LuxAB), bacterial two-hybrid system with induced Src [1] | luminescence (LuxAB), bacterial two-hybrid system with induced Src [2] | difference in luminescence between systems containing PTP1B or PTP1B (C215S) [2] |
| --- | --- | --- | --- |
| Src kinase (protein) MSKPQTQGLAKDAWEIPRESLRLEVKLGQGCFGEVWMGTWNGTTRVAIKTLKPGTMSPEAFLQEAQVMKKLRHEKLVQLYAVVSEEPIYIVTEYMSKGSLLDFLKGETGKYLRLPQLVDMAAQIASGMAYVERMNYVHRDLRAANILVGENLVCKVADFGLARLIEDNEYTARQGAKFPIKWTAPEAALYGRFTIKSDVWSFGILLTELTTKGRVPYPGMVNREVLDQVERGYRMPCPPECPESLHDLMCQCWRKEPEERPTFEYLQAFLEDYFTSTEPQYQPGENL | luminescence increased most prominently for p130cas and MidT | luminescence increased most prominently for p130cas and MidT | – |
| protein tyrosine phosphatase 1B (PTP1B) (protein) MEMEKEFEQIDKSGSWAAIYQDIRHEASDFPCRVAKLPKNKNRNRYRDVSPFDHSRIKLHQEDNDYINASLIKMEEAQRSYILTQGPLPNTCGHFWEMVWEQKSRGVVMLNRVMEKGSLKCAQYWPQKEEKEMIFEDTNLKLTLISEDIKSYYTVRQLELENLTTQETREILHFHYTTWPDFGVPESPASFLNFLFKVRESGSLSPEHGPVVVHSSAGIGRSGTFCLADTCLLLMDKRKDPSSVDIKKVLLEMRKFRMGLIQTADQLRFSYLAVIEGAKFIMGDSSVQDQWKELSHEDLEPPPEHIPPPPRPPKRILEPHN | – | – | The difference in luminescence between systems containing PTP1B or PTP1B (C215S) was greatest for MidT |
